{"source": "patent US20160075789A1", "about": "(EDIMER PHARMACEUTICALS, published 2016)", "binders": {"B1": {"name": "mAbEDA1-EctoD3 (antibody, mouse IgG1, V domains shown)", "VH": "QVQLHQSGAELARPGASVKLSCKASGYTFTSYGISWVKQRTGQGLEWIGEVYPRSGDTYYHDYFEGKATLTADKSSSTAYMELRSLTSEDSAVYFCARGDYADVWGTGTTVTVSS", "VL": "DIVLTQSPASLAVSLGQRATISCRASKSVSTFGNSYMLWYQQKPGQPPKLLIYLASNLESGVPARFSGSGSGTDFTLNIHPVEEEDAATYYCQNSRELPYTFGGGTKLEIKR", "notes": "also called EctoD3-biotin; EctoD3-biot"}}, "biological_target": "T1, Fc-APRIL (UniProt O75888 105-250, limits assumed)", "T1 construct": "also called control protein Fc-APRIL; not shown: Fc portion; not described for this construct", "T1 sequence (looked up)": "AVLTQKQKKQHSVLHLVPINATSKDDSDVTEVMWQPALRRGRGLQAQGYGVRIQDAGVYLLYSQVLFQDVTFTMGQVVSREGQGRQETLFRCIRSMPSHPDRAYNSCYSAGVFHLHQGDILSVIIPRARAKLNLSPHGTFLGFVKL", "test": "western blot under reducing conditions"}
{"binder": "B1", "values": [{"measurement": "binding result", "result": "no binding"}]}
